Substitutions are numbered along the chain they refer to. Names and notes keep the numbering of the source.
B1: Fab VH5-51_IGHD5-18*01>3_IGHJ4*01 G100K/G104T G24T/S28R/G35V & V3-4_IGLJ1*01 (Fab, V domains shown)
VH: EVQLVQSGAEVKKPGESLKISCKTSGYRFTSYWIVWVRQMPGKGLEWMGIIYPGDSDTRYSPSFQGQVTISADKSISTAYLQWSSLKASDTAMYYCARRKYSYTYDYFDYWGQGTLVTVSS
VL: QTVVTQEPSFSVSPGGTVTLTCGLSSGSVSTSYYPSWYQQTPGQAPRTLIYSTNTRSSGVPDRFSGSILGNKAALTITGAQADDESDYYCVLYMGSGISYVFGTGTKVTVL
notes: Fab made in E. coli: VH on CH1 with His6 and Flag tags (Plasmid A), VL on lambda CL (Plasmid E); also called H: KT TRV & L: wt
B2: Fab VH5-51_IGHD5-18*01>3_IGHJ4*01 G100K/G104T G24T/S28R/G35V & V3-4_IGLJ1*01 V91L/S96P S52M (Fab, V domains shown)
VH: B1 VH
VL: B1 VL with S52M, V91L, S96P
notes: Fab made in E. coli: VH on CH1 with His6 and Flag tags (Plasmid A), VL on lambda CL (Plasmid E); also called H: KT TRV & L: LP S52M
B3: Fab VH5-51_IGHD5-18*01>3_IGHJ4*01 G100K/G104T G24T/S28R/G35V & V3-4_IGLJ1*01 V91L/S96P (Fab, V domains shown)
VH: B1 VH
VL: B1 VL with V91L, S96P
notes: Fab made in E. coli: VH on CH1 with His6 and Flag tags (Plasmid A), VL on lambda CL (Plasmid E); also called H: KT TRV & L: LP
B4: Fab VH5-51_IGHD5-18*01>3_IGHJ4*01 G100K/G104T G24T/S28R/G35V & V3-4_IGLJ1*01 V91L/S96P S52G (Fab, V domains shown)
VH: B1 VH
VL: B1 VL with S52G, V91L, S96P
notes: Fab made in E. coli: VH on CH1 with His6 and Flag tags (Plasmid A), VL on lambda CL (Plasmid E); also called H: KT TRV & L: LP S52G
B5: Fab VH1-46_IGHD6-6*01_IGHJ1*01 S102A/S103P/S104F/H111F G56A & L6_IGKJ1*01 (Fab, V domains shown)
VH: QVQLVQSGAEVKKPGASVKVSCKASGYTFTSYYMHWVRQAPGQGLEWMGIINPSGASTSYAQKFQGRVTMTRDTSTSTVYMELSSLRSEDTAVYYCAREEYAPFSAEYFQFWGQGTLVTVSS
VL: not shown
notes: Fab made in E. coli: VH on CH1 with His6 and Flag tags (Plasmid A), VL on kappa CL (Plasmid C); also called H: APFF G56A & L: wt
B6: Fab VH1-46_IGHD6-6*01_IGHJ1*01 S102A/S103P/S104F/H111F G56A & L6_IGKJ1*01 S28N/S30D/S31H (Fab, V domains shown)
VH: B5 VH
VL: EIVLTQSPATLSLSPGERATLSCRASQNVDHYLAWYQQKPGQAPRLLIYDASNRATGIPARFSGSGSGTDFTLTISSLEPEDFAVYYCQQRSNWPPWTFGQGTKVEIKR
notes: Fab made in E. coli: VH on CH1 with His6 and Flag tags (Plasmid A), VL on kappa CL (Plasmid C); also called H: APFF G56A & L: NDH
B7: Fab VH1-46_IGHD6-6*01_IGHJ1*01 S102A/S103P/S104F/H111F S54A & L6_IGKJ1*01 S28N/S30D/S31H (Fab, V domains shown)
VH: B5 VH with S54A, A56G
VL: B6 VL
notes: Fab made in E. coli: VH on CH1 with His6 and Flag tags (Plasmid A), VL on kappa CL (Plasmid C); also called H: APFF S54A & L: NDH

Biological target: T1, recombinant human DLL4 (Cat# 1506-D4/CF, R&D Systems) (human, UniProt Q9NR61 27-529)
T1 construct: Bought protein; also called hDLL4; rHuman DLL4
Assay: ELISA, DLL4 coated, Fab 25 nM
Outline: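 A450 read-out after 2 min TMB development and acid stop. Fab, serially diluted in 1% BSA/PBS, bound in triplicate for 1 h at RT on plates blocked with 1% BSA/TBST; detection via HRP goat anti-human kappa or lambda (1:1000, 30 min RT).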

ELISA absorbance at 450 nm [A450] | Binder
0.26 | B1
0.59 | B2
0.58 | B3
0.9 | B4

Biological target: T1, recombinant human DLL4 (Cat# …)
Assay: ELISA, DLL4 coated, Fab 11.11 nM

ELISA absorbance at 450 nm [A450] | Binder
0.04 | B1
0.06 | B2
0.07 | B3
0.17 | B4

Biological target: T1, recombinant human DLL4 (Cat# …)
Assay: ELISA, DLL4 coated, Fab 0.41 nM
Experimental: (§1) The plate was blocked by adding 1% BSA in Tris-buffered Saline Tween (TBST) and incubating for 1 hour at room temperature followed by washing 2 times with 150 μl TBST. A Fab antibody was serially diluted in 1% BSA in PBS. A 50 μl aliquot of each serial dilution was added, in triplicate, to each well and the plate was incubated for 1 hour at room temperature followed by washing 2 times with TBST. 50 μl of either goat anti-human kappa HRP conjugated secondary antibody (Cat # A7164-1 mL, Sigma-Aldrich) or goat anti-human lambda HRP conjugated secondary antibody (Cat # L1645-1 ml, Sigma-Aldrich), diluted 1:1000 in 1% BSA in PBS, was added to each well and the plate was incubated for 30 minutes at room temperature followed by washing 3 times with 200 μl TBST. Finally, 50 μl TMB one-component reagent (Cat # TMBW-1000-01, BioFax) was added and allowed to develop for 2 minutes at room temperature. The reaction was immediately halted by the addition of 50 μl 0.5M H₂SO₄ and the absorbance at 450 nm was measured using an ELISA plate reader.

ELISA absorbance at 450 nm [A450] | Binder
0.01 | B1
0.03 | B2
0.02 | B3
0.01 | B4

Biological target: T1, recombinant human DLL4 (Cat# …)
Assay: ELISA, DLL4 coated, Fab 1.23 nM
Experimental: as §1

ELISA absorbance at 450 nm [A450] | Binder
0.01 | B1
0.03 | B2
0.03 | B3
0.03 | B4

Biological target: T1, recombinant human DLL4 (Cat# …)
Assay: ELISA, DLL4 coated, Fab 100 nM

ELISA absorbance at 450 nm [A450] | Binder
0.338 | B5
0.453 | B6
0.213 | B7

Biological target: T1, recombinant human DLL4 (Cat# …)
Assay: ELISA, DLL4 coated, Fab 6.67 nM
Experimental: as §1

ELISA absorbance at 450 nm [A450] | Binder
0.023 | B1

Biological target: T1, recombinant human DLL4 (Cat# …)
Assay: ELISA, DLL4 coated, Fab 12.5 nM
Experimental: (§2) In this example, an ELISA binding assay was used to assess the dose-dependent binding of Fab antibodies to recombinant human DLL4 and recombinant mouse DLL4.
as §1

ELISA absorbance at 450 nm [A450] | Binder
0.23 | B1
0.41 | B2
0.45 | B3
0.63 | B4

Biological target: T1, recombinant human DLL4 (Cat# …)
Assay: SPR (ProteOn), hDLL4 amine-coupled on chip
Experimental: In this example, the binding affinities of selected anti-DLL4 Fabs to recombinant human DLL4 (hDLL4, Cat# 1506-D4/CF, R&D Systems) were analyzed using Surface Plasmon Resonance (SPR) (Biosensor Tools, Salt Lake City, Utah). The Fabs analyzed include germline-derived antibodies and germline-modified DLL4 antibodies. Recombinant hDLL4 was immobilized on a SPR chip using amine coupling at three different surface densities. The Fabs were serially diluted 3-fold, with an initial concentration of 1 μM. Binding studies were run on a ProteOn system using a GLM sensor chip in 10 mM HEPES, pH 7.4, 150 mM NaCl, 0.01% Tween-20, and 0.1 mg/ml BSA at 25° C. The response data from each surface was globally fit to determine the binding constants.

Kd [nM] | koff [s⁻¹] | kon [M⁻¹ s⁻¹] | Binder
36.2 | 0.0717 | 2.09e+06 | B1
3.3 | 0.036 | 1.1e+07 | B3
5 | 0.0147 | 2.96e+06 | B4

Biological target: T1, recombinant human DLL4 (Cat# …)
Assay: ELISA, DLL4 coated, Fab 33.33 nM
Experimental: as §1

ELISA absorbance at 450 nm [A450] | Binder
0.08 | B1
0.12 | B2
0.19 | B3
0.35 | B4

Biological target: T1, recombinant human DLL4 (Cat# …)
Assay: ELISA, DLL4 coated, Fab 100 nM
Remark: another data set of the same source
Experimental: as §2, §1

ELISA absorbance at 450 nm [A450] | Binder
0.45 | B1
1.01 | B2
1 | B3
1.14 | B4

Biological target: T1, recombinant human DLL4 (Cat# …)
Assay: ELISA, DLL4 coated, Fab 3.70 nM
Experimental: as §1

ELISA absorbance at 450 nm [A450] | Binder
0.03 | B1
0.03 | B2
0.03 | B3
0.06 | B4

Biological target: T1, recombinant human DLL4 (Cat# …)
Assay: ELISA, DLL4 coated, Fab 50 nM
Experimental: as §2, §1

ELISA absorbance at 450 nm [A450] | Binder
0.32 | B1
0.8 | B2
0.81 | B3
1.02 | B4

Biological target: T1, recombinant human DLL4 (Cat# …)
Assay: ELISA, DLL4 coated, Fab 20 nM
Experimental: as §1

ELISA absorbance at 450 nm [A450] | Binder
0.054 | B1

Biological target: T1, recombinant human DLL4 (Cat# …)
Assay: ELISA, DLL4 coated, Fab 0.14 nM
Experimental: as §1

ELISA absorbance at 450 nm [A450] | Binder
0 | B1
0.02 | B2
0.03 | B3
0.02 | B4

Biological target: T1, recombinant human DLL4 (Cat# …)
Assay: ELISA, DLL4 coated, Fab 75 nM

ELISA absorbance at 450 nm [A450] | Binder
0.399 | B5
0.543 | B6
0.212 | B7

Biological target: T1, recombinant human DLL4 (Cat# …)
Assay: ELISA, DLL4 coated, Fab 2.22 nM
Experimental: as §1

ELISA absorbance at 450 nm [A450] | Binder
0 | B1

Biological target: T1, recombinant human DLL4 (Cat# …)
Assay: ELISA, DLL4 coated, Fab 100 nM
Remark: another data set of the same source
Experimental: as §1

ELISA absorbance at 450 nm [A450] | Binder
0.16 | B1
0.24 | B2
0.34 | B3
0.69 | B4

Biological target: T1, recombinant human DLL4 (Cat# …)
Assay: ELISA, DLL4 coated, Fab 50 nM
Remark: another data set of the same source
Experimental: as §1

ELISA absorbance at 450 nm [A450] | Binder
0.301 | B5
0.366 | B6
0.154 | B7

Biological target: T1, recombinant human DLL4 (Cat# …)
Assay: ELISA, DLL4 coated, Fab 0.74 nM
Experimental: as §1

ELISA absorbance at 450 nm [A450] | Binder
0.002 | B1
